Patent US20260008817A1, “CYCLIC PEPTIDE OR SALT THEREOF, AND USES THEREOF” (FUJIFILM Corporation, priority 2023, published 2026)

Test: Reductive stability of cyclic peptide (DTT treatment, LC)
Assay type: physicochemical
Details: residual rate after DTT treatment, room temperature, 1 hour
Description: The molecular stability of the cyclic peptide was evaluated by analyzing an aqueous solution of the cyclic peptide treated with a reducing agent by liquid chromatography (LC).
The reducing agent treatment was performed under the following conditions based on the concentration of glutathione contained in the cells. 25 μL of a 0.2 mg/mL cyclic peptide aqueous solution was prepared, 58.8 μL of a 12.6 mmol/L DTT aqueous solution was added to the aqueous solution, and the mixture was incubated at room temperature for 1 hour to obtain an aqueous solution of the cyclic peptide treated with a reducing agent. The DTT aqueous solution was used by diluting a 1 mol/L (+−)-dithiothreitol (DTT) solution (FUJIFILM Wako Pure Chemical Corporation, 044-33871) with water. The total area of all the peaks in LC/MS of the cyclic peptide before the reducing agent treatment was set to 100%, and the proportion of the total area of all the peaks in LC/MS of the aqueous solution of the cyclic peptide treated with the reducing agent was determined to calculate the residual rate of the cyclic peptide, and the molecular stability was evaluated according to the following evaluation criteria. The evaluation result preferably satisfies the evaluation criteria A, B, or C.
• A: The residual rate of cyclic peptide is 90% or more. • B: The residual rate of the cyclic peptide is 70% or more and less than 90% • C: The residual rate of the cyclic peptide is 50% or more and less than 70% • D: The residual rate of the cyclic peptide is less than 50%
The LC used for the evaluation of molecular stability was set to the following conditions. • LC device: Prominence series (pump, column oven, autosampler, detector) (manufactured by Shimadzu Corporation) • Detector: photodiode array detector (SPD-M20A), measurement wavelength of 280 nm • Column: TSKgel ODS-100V, inner diameter of 4.6 mm×length of 150 mm, particle diameter of 5 μm (manufactured by Tosoh Corporation) • Eluent A: solution containing 0.1% trifluoroacetic acid as solute, and solvent is 100% water • Eluent B: solution containing 0.1% trifluoroacetic acid as solute, and solvent is 100% acetonitrile • Flow rate: 1.0 mL/min • Injection amount: 25 μL • Gradient: 20% to 50%: Eluent B (0 to 15 minutes), 100%: Eluent B (15 minutes) • Column temperature: 40° C.

Q: Which “Evaluation result of reductive stability” value does the source give for “335 (ACVWTFDRHAQEISQALHKVKKK; not fully specified; Description of Artificial Sequence: Cyclic peptide) [compound 335]” here?
A: B (The residual rate of the cyclic peptide is 70% or more and less than 90%)
